Measurements taken from patent US20080107658A1 (AstraZeneca / MedImmune, published 2008).
Residue numbers refer to the chain shown, from its start. Like-named read-outs stand apart in the source and are kept apart here.

Key:
[1] = biological target: T1, rat nerve growth factor (beta-NGF) (rat, UniProt P25427 122-241); assay: inhibition of rat 125I-NGF binding to coated p75 fusion protein
Description: (§1) Human TrkA and p75 receptor fusion proteins (R&D Systems) were diluted in Dulbecco's PBS (Gibco) to final concentrations of 10 nM and 0.6 nM, respectively. Maxisorp Nunc white 96 well microtitre plates (Nalge Nunc) were coated overnight at 4° C. with 100 μl/well of the diluted TrkA or p75 receptor solution. Plates were washed 3 times with PBS Tween 20, and then blocked with 200 μl/well 3% w/v bovine serum albumin (BSA) in PBS. Plates were washed after 1 h incubation at room temperature. Test antibodies were diluted to the desired concentration in assay buffer (0.5% w/v BSA and 0.05% v/v Tween 20 in PBS). […] Duplicate wells were prepared for each concentration of test sample. […] Bound radiolabel was quantified by addition of 100 μl/well Microscint 20 (Perkin Elmer) followed by counting using a Packard TopCount microplate liquid scintillation counter. Data were plotted and analysed using Graphpad Prism software to calculate IC₅₀ values for each experiment, and to derive the corresponding Ki according to the Cheng-Prusoff equation; Ki=IC₅₀/(1+D/Kd) Where: [0257]

[2] = biological target: T2, human nerve growth factor (beta-NGF) (human, UniProt P01138 122-241); assay: inhibition of human 125I-NGF binding to coated p75 fusion protein
T2 sequence (P01138 122-241): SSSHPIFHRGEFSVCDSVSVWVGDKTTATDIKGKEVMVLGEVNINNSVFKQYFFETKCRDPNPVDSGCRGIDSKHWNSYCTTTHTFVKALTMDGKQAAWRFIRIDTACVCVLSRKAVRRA
Description: as §1

[3] = biological target: T2, human nerve growth factor (beta-NGF); assay: inhibition of human 125I-NGF binding to coated TrkA fusion protein
Description: as §1

[4] = biological target: T1, rat nerve growth factor (beta-NGF); assay: inhibition of rat 125I-NGF binding to coated TrkA fusion protein
Description: as §1

[5] = biological target: T1, rat nerve growth factor (beta-NGF); assay: cell-based or functional assay
[6] = biological target: T2, human nerve growth factor (beta-NGF); assay: cell-based or functional assay
[7] = biological target: mouse nerve growth factor (mouse, UniProt P01139 122-241); assay: cell-based or functional assay
mouse nerve growth factor, sequence (P01139 122-241): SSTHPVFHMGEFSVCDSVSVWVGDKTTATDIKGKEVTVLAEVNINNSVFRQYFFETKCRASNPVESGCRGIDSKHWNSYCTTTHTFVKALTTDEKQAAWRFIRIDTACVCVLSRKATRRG

[8] = biological target: T2, human nerve growth factor (beta-NGF); assay: cell-based or functional assay; remark: listed apart in the source
[9] = biological target: T1, rat nerve growth factor (beta-NGF); assay: cell-based or functional assay; remark: listed apart in the source
[10] = biological target: T1, rat nerve growth factor (beta-NGF); assay: cell-based or functional assay; remark: listed apart in the source
[11] = biological target: T2, human nerve growth factor (beta-NGF); assay: cell-based or functional assay; remark: listed apart in the source
[12] = biological target: T2, human nerve growth factor (beta-NGF); assay: purified scFv, inhibition of human NGF binding to TrkA fusion protein
[13] = biological target: T1, rat nerve growth factor (beta-NGF); assay: purified scFv, inhibition of rat NGF binding to TrkA fusion protein

T1 sequence (P25427 122-241): as the sequence (P01139 122-241) above, with A40G, R50K, S61P, E94D, T117A counted along it

**Q.** “mouse anti-mouse NGF MAB5260Z (Chemicon) (antibody)” was tested. Which IC50 [1] did it give?
**A.** 0.587 nM

**Q.** And the Ki [1]?
**A.** 0.532 nM

**Q.** And the IC50 [2]?
**A.** 0.57 nM

**Q.** What about the Ki [2] of the same molecule?
**A.** 0.472 nM

**Q.** And the IC50 [3]?
**A.** 0.368 nM

**Q.** And the Ki [3]?
**A.** 0.333 nM

**Q.** What about the IC50 [4] of the same molecule?
**A.** 0.31 nM

**Q.** What about the Ki [4] of the same molecule?
**A.** 0.288 nM

**Q.** What does the source list for “mouse anti-human NGF MAB256 (R&D Systems) (antibody)”?
**A.** IC50, FLIPR calcium mobilisation [5]: 0.79 nM; IC50, PC12 cell survival [5]: 44 nM; IC50, TF-1 cell proliferation [5]: 5 nM; IC50, calcium mobilisation assay [5]: 0.79 nM; IC50, FLIPR calcium mobilisation [6]: 0.76 nM; IC50, PC12 cell survival [6]: 23 nM; IC50, TF-1 cell proliferation [6]: 6 nM; IC50, calcium mobilisation assay [6]: 0.76 nM; IC50 [1]: 2.94 nM; Ki [1]: 2.67 nM; IC50, FLIPR calcium mobilisation [7]: 1.4 nM; IC50, TF-1 cell proliferation [7]: 7 nM; IC50 [2]: 0.304 nM; Ki [2]: 0.252 nM; IC50 [3]: 1.94 nM; Ki [3]: 1.76 nM; IC50 [4]: 1.48 nM; Ki [4]: 1.38 nM

B1: 1057F11 human IgG4 (antibody, V domains shown)
VH: EVQLVETGGGVVQPGTSLRLSCAASGFTFSSHGMHWVRQAPGQGLEWVAHAWSDGSNKYYADSLKGRFTISRDNSRNTLYLQMNSLRAEDTAVYYCARDGQQLANYAMDVWGRGTTVTVSS
VL: DIQMTQSPSFLSASVGDRVTITCRASQGINSYLAWYQQIPGKAPNLLIYAASTLQSGVPSRFSGSGSGTEFTLTISSLQPEDFATYYCQQLNTYPFTFGPGTKVEIK
**Q.** With B1 as the molecule, how does the “IC50, calcium mobilisation assay” value [8] read?
**A.** ~3700 nM

B2: 1033G9 human IgG4 (antibody, V domains shown)
VH: EVQLVQSGAEVRKPGSSVKVSCKASGDTSTLYSINWVRQVPGQGLEWMGAIIPIFGLTDYAQEFQGRLTITADESTNTAYMELTGLRSEDTAIYYCARNLFTTLSYWYFDLWGQGTLVTVSS
VL: SSELTQDPAVSVALGQTVRITCQGDRLRSYYASWYQQKPGQAPVLVIYGKNNRPSGIPDRFSGSSSGNTASLTITGAQAEDEADYYCNSRDSSGNHVVFGGGTLLTVL
**Q.** Which results are given for B2?
**A.** IC50, calcium mobilisation assay [9]: 26 nM; IC50, calcium mobilisation assay [8]: 55 nM

B3: 1033B2 human IgG4 (antibody, V domains shown)
VH: QVQLQQSGAEVKKPGSSVKLSCKASGGTFSSFGISWVRQAPGQGLEWLGRIIPFLGPADYAQKFQGRVTITADESRSTAYMELSSLTSEDTAVYFCARSFYDILTGYYEGVFYYYMDVWGQGTMVTVSS
VL: QSVLIQPASVSGSPGQSITISCTGTSSDVGGYNYVSWYQQHPGKAPKLMIYEGSKRPSGVSNRFSGSKSGNTASLTISGLQAEDEADYYCSSYTTRSTRVFGGGTKLTVL
**Q.** B3 was tested. Which “IC50, calcium mobilisation assay” value [8] did it give?
**A.** 85 nM

B4: 1064F8 human IgG4 (antibody, V domains shown)
VH: EVQLVQSGAEVKKPGSSVKVSCKASGGTFSSYAYTWVRQAPGQGLEWMGGIVPIFGSTNYAQKFQGRLTITADEFTSTAHMELSSLTSADTAVYYCAGGSDLYCSGGNCYGGGHYYYYMDVWGQGTTVTVSS
VL: SSELTQDPAVSVALGQTVRITCTGTSSDVGGYNYVSWYQQHPGKAPKLMIYEGSKRPSGVSNRFSGSKSGNTASLTISGLQAEDEADYYCSSYTTRSTRVFGGGTKLTVL
**Q.** Which results are given for B4?
**A.** IC50, calcium mobilisation assay [9]: 5.5 nM; IC50, calcium mobilisation assay [8]: 2.5 nM

B5: 1021E5 human IgG4 (antibody, V domains shown)
VH: EVQLVQSGAEVKKPGSSVKVSCKASGGTFSTYGISWVRQAPGQGLEWIGGIIPIFDTGNSAQSFQGRVTITADESTSTAYMEVSSLRSDDTAVYYCASSSRIYDYAGGDHYYYDMDVWGQGTMVTVSS
VL: QAVLTQPSSVSTPPGQKVTISCSGSSSNIGNNYVSWYQQLPGTAPKLLIYDNNKRPSGIPDRFSGSKSGTSATLGITGLQTGDEADYYCGTWDSSLSAWVFGGGTKLTVL
**Q.** For B5, which “IC50, FLIPR calcium mobilisation” value [7] is on record?
**A.** 47 nM

**Q.** And the “IC50, FLIPR calcium mobilisation” value [10]?
**A.** 75 nM

**Q.** What about the “IC50, FLIPR calcium mobilisation” value [11] of the same molecule?
**A.** 76 nM

**Q.** And the “IC50, PC12 cell survival” value [11]?
**A.** ~1300 nM

**Q.** What about the “IC50, calcium mobilisation assay” value [9] of the same molecule?
**A.** 75 nM

**Q.** And the “IC50, calcium mobilisation assay” value [8]?
**A.** 76 nM

B6: 1218H5 scFv (scFv, V domains shown)
VH: B5 VH with E10V, N59S, Y105L, A106N, G107P, G108S, D109L, H110T, Y111A
VL: B5 VL with I29T, P41S
notes: also called LOT1218H05
**Q.** How did the IC50 [12] turn out when B6 was run?
**A.** < 0.01 nM

**Q.** What about the IC50 [13] of the same molecule?
**A.** 0.03 nM

B7: 1016A8 human IgG4 (antibody, V domains shown)
VH: EVQLVQSGAELKKPGASVKVSCKASGYPFTSYYMHWVRQAPGQGLEWMGLVDPEDGETIYAEKFQGRVTITADTSTDTAYMELSSLRSEDTAVYSCATSSHNYGTASYYHYGMDVWGRGTMVTVSS
VL: QSVLTQPPSASGTPGQRVTISCSGSSSNIGSNTVNWYQRLPGAAPQLLIYNNDQRPSGIPDRFSGSKSGTSGSLVISGLQSEDEADYYCASWDDSLNGRVFGGGTKLTVL
**Q.** Which “IC50, calcium mobilisation assay” value [9] does the source give for B7 here?
**A.** 14 nM

**Q.** And the “IC50, calcium mobilisation assay” value [8]?
**A.** 65 nM

B8: 1083H4 human IgG4 (antibody, V domains shown)
VH: QMQLVQSGAEVKKTGSSVKVSCKASGYTFAYHYLHWVRQAPGQGLEWMGGIIPIFGTTNYAQRFQDRVTITADESTSTAYMELSSLRSEDTAVYYCASADYVWGSYRPDWYFDLWGRGTMVTVSS
VL: B7 VL
**Q.** How did the “IC50, FLIPR calcium mobilisation” value [7] turn out when B8 was run?
**A.** 54 nM

**Q.** What about the “IC50, FLIPR calcium mobilisation” value [10] of the same molecule?
**A.** 61 nM

**Q.** What about the “IC50, FLIPR calcium mobilisation” value [11] of the same molecule?
**A.** 30 nM

**Q.** And the “IC50, PC12 cell survival” value [11]?
**A.** ~1100 nM

**Q.** And the “IC50, calcium mobilisation assay” value [9]?
**A.** 61 nM

**Q.** And the “IC50, calcium mobilisation assay” value [8]?
**A.** 30 nM

B9: 1028F8 human IgG4 (antibody, V domains shown)
VH: EVQLLESGGGLVQPGGSLRLSCAASGFTFSSYAMSWVRQAPGKGLEWVSAIIGSGGSTYYADSVKGRFTISRDNSKNTLYLQMNSLRAEDTAVYYCARAGGSGWFENWFDPWGRGTLVTVSS
VL: QSVLTQPPSVSVSPGQTATITCSGDNLEDKYVSWYQQKAGQSPVLVIFQDSKRPSEIPERFSGSNSGNTATLTISGTLSGDEADYYCQVWDAGIDPWAFGGGTKLTVL
**Q.** How did the “IC50, calcium mobilisation assay” value [8] turn out when B9 was run?
**A.** 73 nM

B10: 1024C4 human IgG4 (antibody, V domains shown)
VH: QVQLQESGGGVVQPGRSLRLSCAASGFAFKKYGLHWVRQAPGKGLEWVGVTSYDGSKNYYADSVKGRFTISRDNSKNTLYLQVNSLRPEDTAVYYCAKDGEVGDLHLVPFRQDSGLDVWGRGTLVTVSS
VL: QSVLTQPPSVSVSPGQTASITCSGDNLGDKYVHWYQQKPGQSPVLVTYQDTKRPSGIPERFSGSNSGNTATLTISGTQAMDEAGYYCQAWDSSTVVFGGGTKLTVL
**Q.** With B10 as the molecule, how does the “IC50, calcium mobilisation assay” value [9] read?
**A.** ~565 nM

**Q.** And the “IC50, calcium mobilisation assay” value [8]?
**A.** ~410 nM

B11: 1022E3 human IgG4 (antibody, V domains shown)
VH: QVQLVQSGAEVKKPGASVKVSCKASGYSFINYSMHWVRQAPGQGLEWIGIINPGGDSTKYTQRFQDRVTMTWDTSTSTVYMDLSSLRSEDTAIYYCARGLHPIPMMLATINPIFAYWGQGTLVTVSS
VL: SSELTQDPAVSVALGQTVRITCRGDSLRNYYANWYQQKPGQAPVLVIYDENKRPSGIPDRFSGSGSGNTASLTITGAQAEDEADYFCNSRDTFGYVRDVLFGGGTKVTVL
**Q.** What does the source list for B11?
**A.** IC50, calcium mobilisation assay [9]: 14 nM; IC50, calcium mobilisation assay [8]: 18 nM
